For five molecules, binding result and Kd results are on record in patent US20200181198A1 (3M INNOVATIVE PROPERTIES, published 2020).

For experiment [1], the target named is T1, Recombinant Human Tumor Necrosis Factor-alpha (TNF-alpha) (human, UniProt P01375 77-233).
T1 construct: Commercial reagent; also called TNFα
As to the kind of experiment: SPR (Biacore 3000, CM5 chip), linker modified peptide immobilized, TNF-alpha as analyte, 25 C. On the procedure:
(§1) The following Test Method A was used for determining the binding affinity (KD) of SEQ ID NO: 1 for EGF and TNF-[…] Binding experiments were performed using Biacore 3000 optical biosensors equipped with research-grade CM5 sensor chips (GE Healthcare Bio-Sciences Corporation). The reagents used for the amine-coupling steps [(1-ethyl-3-(3-dimethylaminopropyl)-carbodiimide (EDC); N-hydroxysuccinimide (NHS); and ethanolamine hydrochloride-NaOH (1 M, pH 8.5)] were obtained from GE Healthcare Bio-Sciences Corporation. In order to efficiently immobilize the peptide on the sensor chips, a modified version of SEQ ID NO:1 was prepared by SPPS in which a “CK” amino acid linker sequence was added to the N-terminal end of the SEQ ID NO: 1 peptide (i.e. linker modified version of SEQ ID NO: 1 for immobilization being […]). A standard coupling protocol was employed to immobilize the linker modified version of SEQ ID NO: 1 via the lysine residues. The immobilization was performed at 25° C. using HBS-EP as the running buffer. The CM-dextran surfaces of the sensor chip flow cells were activated by a seven minute injection (20 microliters/minute) of freshly prepared 1:1 50 mM NHS: 200 mM EDC. A solution of linker modified SEQ ID NO: 1 in acetic acid (20 mM, pH 5.5) was injected to target 200 response units (RU). […]
(Surface plasmon resonance follows binding to a sensor surface in real time, without labels.)

Experiment [2] addresses T2, Recombinant Human Epidermal Growth Factor (EGF) (human, UniProt P01133 971-1023).
T2 construct: Commercial reagent; also called EGF protein
Briefly: SPR (Biacore 3000, CM5 chip), linker modified peptide immobilized by amine coupling, EGF analyte 62.5-1000 nM, 25 C, 1:1 Langmuir global fit. Here is the method:
as §1

Experiment [3] addresses T2, Recombinant Human Epidermal Growth …. As to the kind of experiment: dot blot, peptide spotted on nitrocellulose, EGF in solution, anti-EGF-IgG-HRP detection. Here is the method:
SEQ ID NO: 1 (1 microliter of a 10 nM solution in PBS containing 3 wt. % DMSO) and SEQ ID NO: 2 (1 microliter of a 10 nM solution in PBS containing 3 wt. % DMSO) were individually spotted at separate sites on a nitrocellulose membrane (obtained from Thermo Fisher Scientific, Waltham, Mass.) and the membrane was dried in air for about 30 minutes. The membrane was then incubated in 25 mL of blocking buffer (3 wt. % BSA in PBS) for one hour at room temperature. The membrane was washed three times (15 minutes for each wash) with 15 mL portions of fresh PBST. The washed membrane was incubated with EGF protein [10 microliters of a 100 ng/mL solution in blocking buffer (3 wt. % BSA in PBS)] with gentle agitation for one hour. The membrane was again washed three times (15 minutes for each wash) with 15 mL portions of fresh PBST. The washed membrane was incubated with anti-EGF-IgG-HRP [1:5000 dilution in 10 mL of the blocking buffer (3 wt. % BSA in PBS)] for one hour with gentle agitation. Following the incubation, the membrane was washed three times (15 minutes for each wash) with 15 mL portions of fresh PBST. The washed membrane was incubated with 10 mL of the development solution for horseradish peroxidase (TMB-Blotting Substrate Solution, Pierce-Fisher Scientific, Rockford, Ill.) with gentle agitation. The color development was stopped by adding water.

In experiment [4] the target is T1, Recombinant Human Tumor Necrosis …. As to the kind of experiment: SPR (Biacore 3000, CM5 chip), linker modified peptide immobilized, TNF-alpha as analyte, Test Method A; TNF-alpha as analyte. On the procedure:
as §1

In experiment [5] the target is T2, Recombinant Human Epidermal Growth …. Briefly: SPR (Biacore 3000, CM5 chip), linker modified peptide immobilized, EGF as analyte, Test Method A; EGF as analyte. On the procedure: as §1
Experiment [6] shares this target. Briefly: dot blot, EGF spotted on nitrocellulose, biotinylated peptide in solution, Streptavidin-HRP detection. Here is the method: EGF (1 microliter of a 10 nM solution in PBS was spotted a nitrocellulose membrane (obtained from Thermo Fisher Scientific) and the membrane was dried in air for about 30 minutes. The membrane was then incubated in 15 mL of blocking buffer (3 wt. % BSA in PBS) for one hour at room temperature. The membrane was washed three times (15 minutes for each wash) with 15 mL portions of fresh PBST. The washed membrane was incubated with Biotinylated SEQ ID NO: 1 [10 mL of a 10 ng/mL solution in blocking buffer (3 wt. % BSA in PBS)] with gentle agitation for one hour. The membrane was again washed three times (15 minutes for each wash) with 15 mL portions of fresh PBST. The washed membrane was incubated with Streptavidin-HRP [1:5000 dilution in 10 mL of the blocking buffer (3 wt. % BSA in PBS)] for 30 minutes with gentle agitation. Following the incubation, the membrane was washed three times (15 minutes for each wash) with 15 mL portions of fresh PBST. The washed membrane was incubated with 10 mL of the development solution for horseradish peroxidase (TMB-Blotting Substrate Solution, Pierce-Fisher Scientific) with gentle agitation. The color development was stopped by adding water. A dark spot developed at the application site on the membrane indicating affinity of SEQ ID NO: 1 for EGF.

Ends that are not written are not given here.

As usually defined, the Kd is the constant that tells how readily two partners part at equilibrium.

T2 sequence (P01133 971-1023 limits assumed): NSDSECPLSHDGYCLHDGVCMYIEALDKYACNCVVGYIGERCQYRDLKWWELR
T1 sequence (P01375 77-233 limits assumed): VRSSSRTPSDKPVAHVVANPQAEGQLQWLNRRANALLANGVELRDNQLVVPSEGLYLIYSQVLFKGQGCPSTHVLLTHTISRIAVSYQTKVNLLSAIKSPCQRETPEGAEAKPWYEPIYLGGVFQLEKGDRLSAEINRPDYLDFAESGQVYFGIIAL

B1: linker modified version of SEQ ID NO: 1 (CKYVSPGMKNVNWWSHWWHATD) (peptide)
peptide: CKYVSPGMKNVNWWSHWWHATD
modifications: not fully specified (N-terminus, C-terminus); also: immobilized on CM5 chip by amine coupling via lysine residues
As to B1, the binding result in experiment [1] was “no binding”. Moreover, the Kd in experiment [2] was 0.706 µM.

B2: SEQ ID NO: 1 peptide (YVSPGMKNVNWWSHWWHATD) (peptide)
peptide: Ac-YVSPGMKNVNWWSHWWHATD-NH2
notes: Chemically synthesized (SPPS, GenScript)
Consider B2, for which, in experiment [3], the binding result is “binds”.

B3: SEQ ID NO: 2 peptide (KNVNWWSHWWHATD) (peptide)
peptide: Ac-KNVNWWSHWWHATD-NH2
notes: as for B2
On to B3, for which the binding result in experiment [3] is “binds”.

B4: linker modified version of SEQ ID NO: 2 (CKNVNWWSHWWHATD) (peptide)
peptide: CKNVNWWSHWWHATD
modifications: not fully specified (N-terminus, C-terminus); also: immobilized on CM5 chip by amine coupling or conjugated to iodoacetyl magnetic beads via linker cysteine
As for B4, the Kd was determined as 2450 µM in experiment [4] and 2.6 µM in experiment [5].
For the molecule YVSPGMKNVNWWSHWWHATD-NH2 (not fully specified (N-terminus); also: biotinylated, site not given here) [Biotinylated SEQ ID NO: 1], the binding result in experiment [6] is on record as “binds”.
